Test results reported in the nanobody polyreactivity screen of Harvey et al. (2022).

Assay: yeast display, Sf9 membrane polyspecificity reagent, FACS + sequencing; frameworks hold sequencing errors
How it was run: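 A nanobody's polyreactivity label depends on the gate it was sorted from. Yeast display cells were stained with 10% biotinylated, detergent-solubilized Sf9 membrane reagent for 1 hour at 4 °C, enriched on streptavidin microbeads and sorted by FACS. The low and high (top ~1%) gates were set on anti-HA fluorescence for expression and streptavidin fluorescence for reagent binding.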

Row | Sequence | polyreactivity (PSR sort gate)
1 | QVQLVESGGGLVQAGGSLRLSCAASGYIFRLYTMGWYRQAPGKERELVAAISYSGGSTYYADSVKGRFTISRDNAKNTVYLQMNSLKPEDTAVYYCAAEDWRGYRWIRYGYWGQGTQVTVSS | low polyreactivity
2 | QLQLVESGGGLVQAGGSLRLSFAASSIIPYNAMGWYRQAPVNEREFVAAISVRGVITYYADSVKGRFTISRDNAKNTVYLQMNSLKPEDTAVYDCAADYQPAGVDYWGQGTQVTVSS | low polyreactivity
3 | QVQLVESGGGLVQAGGSLRLSCAASGSIFYQYAMGWYRQAPGKERELVARIRGSTGTTYYADSVKGRFTFSRDYAKNTVYLQMNSLKPEDNAVYYCNAARYQGRSRFDYWGQGTQVTVSS | high polyreactivity
4 | QVQLVESGGGLVQAGGSLRLSCAASGSIFSENTRGWYRQAPGKERELVAAISWSGGSTNYADSVKGRFTISRDNAKNTVYLQMNSLKPEDTAVYYCFYWGQCTQVTVSS | low polyreactivity
5 | QVQLVESGGGLVQAGGSLRLSCAASGYTFDYYAMGRYRQAPGNERELVAAITNSGGSTYYADSVKGRFTISRDNAKKTVYLQMNSLKPEDPAVYYCAALYYVKPGQRYDYWGQGTQVTVSS | high polyreactivity
6 | QVQLVESGGGLVQAGGSLRLSCAASGRTFGLNAMGWYRQAPGKERELVAVITSSGGSTYYADSVKGRFTISRDNAKNTVYLQMNSLKPEDTAVYYCAARPPYTDSSPGERTYDYWGQGTQVTVSS | low polyreactivity
7 | QVQLVESGGGLVQAGGSLRLSCAASGFIFDPYAMGWYRQAPGKERELVASINTRGDRTSYADSVKGRFTISRDNAKNTVYLQMNSLKPEDTAVYYCNADAVDQVGPDDDYWGQGTQVTVSS | low polyreactivity
8 | QVQLVESGGGLVQAGGSLRLSCAASGIILYPYAMGWYRQAPGKERELVAAISWSGGSTYYADSVKGRFTISRDNAKNTVYLQMNSLKPEDTAVYYCNARYYGPSWNSYDYWGQGTQVTVSS | high polyreactivity
9 | QLQLVESGGGLVQEGGSLRISCDASGSTFDDNAMACYRQAPGKERELVAGIDVSGGSTYYADSVKGRFTISRDNAKKTVYLQMTSLTPEDTAVYFCAKGRPGHRTSSVNFNYWGQGTQVTVSS | low polyreactivity
10 | QVQLVESGGGLVQAGGSLRLRCASSGSIFHRNAMGWYRQAPGKERELVATITSNGGSTYYADSVKGRFTISRDNAKNTVFLHMNRLKPEDTAVYFCARKYRSPISALLTGDYWGQGTEVTVSS | low polyreactivity
11 | QVQLVESGGGLVQAGGSLRLSSASSGFTFNSYAMGWYRQAPGKERELVAAIDTGDDITYYADSVKGRFTISRDNAKNTVYLQMNSLKPVDTAVYYCAAKSRRQYTVGLSSDYWGQGTQVTVSS | high polyreactivity
12 | QVQLVESGGGLDQAGGSLRLSCAASGSLFARNTMGGYRQAPGKERELVATITARGGSTYADSVKGRFTISRDNAKNTVYLQMNSLKPEDTAVYYCNADYGLFSRATFYGYDYWGQGTQVTVSS | low polyreactivity
13 | QVQLVESGGGLVQAGGSLRLSCAASGSILDYYVMGWYRQAPGKERELVAAIRGGGSTYYADSVKGRFTISRDNEKNTVYLQMNRMKREDTAVNYCAAAVYGSYTTYGYFEHYFWGQGTQVTVSS | low polyreactivity
14 | QVQLVESGGGLVQAGGSLRLSCAASGIFFLYGMGWYIQAPGKQRELVAVISTRDTTDYADSVKGRFTISRDKSKNTVNIQMNSLKPEDTAVYFCAATARSRSYSWSKLNYWGQGTQVTLSS | low polyreactivity
15 | QVQLVESGGGLVQAGGSLRLSCAASGSILYVYAMGWYRQAPGKERELVAAISNRDGSTYYADSVKGRFTISRDNAKNTVYLQMNSLKPEDTAVYYCNADGYGDYSFLKYRFEYDYWGQGTQVTVSS | low polyreactivity
16 | QVQLVESGGGLVQAGGSLRLSCAASGYTFRYYAMVWYRQAPGKEREMVAAINGGDITNYADSVKGRFTISRDNAKNTVYLQMNSLKPVDTAVYYCAADGEDSLWTCYDYDYWGQGTQVTVSS | low polyreactivity
17 | QVQHVESGGGLVQAGGSLRLSCAASGRTFSANAMGWDRQAPGKEMELVATISSGGRTNYADSVKGRFTISRDNAKNTVYLQMNSLKPEDTAVYYCAKRGPYKRWYGRYDYWGQGTQVTVSS | low polyreactivity
18 | QVQLVESGGGLVQAGGSLRLSCAASGSTFNRYAMGWYRQAPGKERELVAAITSTGGTNYADSVKGRFTISLDNAKNTVYLQMYSLKPEDTAVYYCAKRWLRWRSNYWGQGTQVTVSS | high polyreactivity
19 | QVQLVESGGGLVQAGGSLRLSCAASGRTYFDYTMGWYRQAPGKERELVAAINRSGVSTYYADSVKGRFTISRDNAKNTVYLQMNSLKPEDTAVYYCNADRGPPKLEYDPVIMDYWGQGTQVTVSS | low polyreactivity
20 | QVQLVESGGGVVQAGGSLRLSCAASGRIFVSYAMGWYRQAPGKERELVASISGRGGSTYYADSVKGRFTISRDNAKNTVELQMNSLKPEDTAVYYCNKVARTRRITTYDYWGQGTQVTVSS | high polyreactivity
21 | QVQLVESRGGLVQAGGSLRLSCAASGRTFGGYAMGWYRQAPGKERELVAAISTRGGTTYYADSVKGRFTISRDNAKNTVYLQMNSLKPEDTAVYYCAAVYLYYYNRYYYWGQGSQVTVSS | high polyreactivity
22 | QVQLVESGGGLVQAGGSLRLSCAASGSTSLYYAMGWYRQAPGKEREFVAAITWSGGSTYYADSVKGRFTISRDNAKNTVYLQMNSLKPEDTAVYYCAARSYGYSAGYYWGQGTQVTVSS | high polyreactivity

Row | Sequence | polyreactivity (PSR sort gate)
23 | QVQLVESGGGLVQAGGSLRLSCAASGSTFYSYAMGWYRQAHGQERELVAAISYSGGSTYYADSVKGRFTISRDNAKNTVYLQMNSLKPADTAVYYCNARAVYPAGYAYDYWGQGTQVTVSS | high polyreactivity
24 | QVQHVESGGGLVQAGGSLRLSCAASGRIFGYYAMGWYRQAHGKQSELVAAITSGGRTNYADSVKGRFTISRDNAKNTVYLQMNSLKPEDTAVYYCAKEYPRYSSPYDYWGQGTQVTVSS | low polyreactivity
25 | QDQLVESRGGLVQAGGSLRISCAASGSPFYRNAKGWNTQAPGKERELVATISTGGVSTYYADSVKGRFTISRDNAKNTVYLQMNSLKPEDTAVYYCAQRTVYLSNLDYWGQGTQVTVTS | low polyreactivity
26 | QVQLVESGGGLVQAGGSLRLSCAASGFIFPYYDMGWYRQAPGKEREFVAAITKSGGRTYYADSVKGRFTISRDNAKNTVYLQMNSLKPEDTAVYYCNADDPDYLVSYRYDYWGQGTQVTVSS | low polyreactivity
27 | QVQLVESGGGLVQAGGSLRLSCAASGSTFVWNAMGWYRQAPGKERELVATITLSTGSTYYADSVKGRFTISRDNAKNTVYLQMNSLKPEDTAVYYCNTEIYVDIISDYGYWGQGTQVTVSS | low polyreactivity
28 | QVQLVESGGGLVQAGGSLRLSCDASGRIFRYYAMGWYRQAPGKERELVAAISSDGSTDYADSVKGRFTISRDNAKNTVYLQMNSLKPEDTAVYYCAASVVSYGHDYWGQGTQVTVSS | low polyreactivity
29 | QVQLVESGGGLVQAGGSLRLSCAASGRTFLNYAMGWYRQAPGKEREFVAAITWRVGTTYYADSVKGRFTISRDNAKNTVYLQMNSLKPEDTAVYYCAARRSVGGYGYWGQGTQVTVSS | high polyreactivity
30 | QVQLLESGGGLVQAGGSLRLSCAASGRTFEKNAMGWYRQAPGNERELVASITSVGSTDYADSVKGSFTISRDNAKNTVYLQMNSLKPEDNAVYYCAKTLGSQNYDFDYWGQGTQVNVSS | low polyreactivity
31 | QVQLVESGGGIVQAGGSLRLSCAASGNIFPYYAMRWYRQERGKERELVASISRSGGSTYYADSVKGRFTISRDNAKNTVYLEMNSLKPEDTAVYYCNTLSRSWQMDYWGLGTQVTVSS | low polyreactivity
32 | QVQLVESGGGLVQAAGSLRVSCAASGSIFYGYAMGGYRKAPGKERELVAAITTVGSTYADSVKGRFTISRDNAKNTVYLQMNSLKPEDTAVYYCNARDYERTRRYLIVYSRYGYWGHGTQVTVSS | low polyreactivity
33 | QVQLVESGGGLVQAGGSLRLSCAASGSIFTRYAMGWYRQAPGKERELVAAISSGGSTYYADSVKGRFTISRDNAKNTVYLQMNSLKPEDTAVYYCAKDSGSYRVGIYEPFPYGYWGQGTQVTVSS | low polyreactivity
34 | QVQLVESGGGLVQAGGSLRLSCAASGTTFDVYAMGWYRQAPGKERELVAAISTRGTRTYYADSVKGRFTISRDNAKNTVYLQMNSLKPEETAVYYCAAYVYDGETVSRFDYWGQGTQVTVSS | high polyreactivity
35 | QVQLVESGGGLVQAGGSLRLSCAASGRPFYKNTMGWYRQAPGKEREFVATISASGGSTYYADSVKGRFSSSRDNATNTVYLQMNSLKPEDTAVYYCAKRDYAGYAVHIGGDMNYWGQGTQVTVSS | low polyreactivity
36 | QVQLVESGGGLVQAGGSLRLSWAASGSTFDYYAMGWYRQAPGKERELVAAIRWSDGSTYYADSVKGRFTISRDNAKNTVYLQMNSLKPEDTAVYYCAADALYWIGRMDYWGQGTQVTVSS | low polyreactivity
37 | QVQLVESGGGLVQAGGSLRLSCAASGFIFYRYAMGWYRQAPGKERELVATIRYSGGSTYYADSVKGRFTISRDNAKNTVYLQMNSLKPEDTAVYYCNARRRHPSVSRPPYDYWGQGTQVTVSS | high polyreactivity
38 | QVQLVESGGGLVQAGGSLRLSCAASGRTIPAYAMGWYRQAPGKERELVAAISWGGGSTYYADSVKGRFTISRDNAKNTVYLQMNSLKPEDTAVYYCAVAGYWFAVAEYDYWGQGTQVTVSS | low polyreactivity
39 | QVQLVESGGGLVQAGGSLRLSCAASGNTFLRYAMGWYRQAPGKERELVAAISRSGGSTYYADSVKGRFTISRDNAKNTVYLQMNSLKPEDTAVYYCATRVYFSPYRYDYWGQGTQVTVSS | high polyreactivity
40 | QVQLVESGGGLVQAGGSHRLSCAASGFIFGRNAMGWYRQATGKDRELVDANTRSGGSTYYADSVKGRFTISRDNAKNTVYLQLYSLKPEDTAVYYCAKGLFTWGVFRVGIRDDYWGQGTQVTVSS | high polyreactivity
41 | QVQLVESGGGLVQAGGSLRLICAASGRNCVYYAMGWYRQAPGKERELVAAITSGDSTYYADSVKGRFTISRDNAKNTVYLQMNSLKPEDTAVYYCAADHYYGSESGGFVIYYYWGQGTQVTVSS | low polyreactivity
42 | QVHLVESGGGLVQAGGSLRLSCAASGRTFWIYGMGWYRPATGKERELVAAITRSGGSTNYADSVKGRFTLSRDNAKNNVYLQMNSLKPEVTAVYYGAADTWYPGYYAYDYRGQGTQVTVSS | high polyreactivity
43 | QVQLVESGGGLVQAGGSLRLSCAASGFIFFPYVMGWYRQAPGKEREFVAAITGDGGSTYYADSVKGRFTISRDNAKNTVYLQMNSLKPEDTAVYYCAAEFGLWYWDWAASEDYWGQGTQVTVSS | high polyreactivity
